# Results as given in PMC4739769, “Transmembrane chemokines act as receptors in a novel mechanism termed inverse signaling” (eLife, 2016).
# T1: transmembrane CXCL16 with a hemagglutinin tag, expressed in LOX melanoma cells (human, UniProt Q9H2A7 30-254)
# T1 construct: CXCL16, transmembrane form; expression vector CXCL16-HA in pcDNA3.1 as described in Abel et al., 2004; called full-length tm-chemokine in the results; also called tm-CXCL16; CXCL16-HA; source: LOX melanoma cells, transfected (pcDNA3.1), on cells or in isolated membranes
# T1 sequence (looked up): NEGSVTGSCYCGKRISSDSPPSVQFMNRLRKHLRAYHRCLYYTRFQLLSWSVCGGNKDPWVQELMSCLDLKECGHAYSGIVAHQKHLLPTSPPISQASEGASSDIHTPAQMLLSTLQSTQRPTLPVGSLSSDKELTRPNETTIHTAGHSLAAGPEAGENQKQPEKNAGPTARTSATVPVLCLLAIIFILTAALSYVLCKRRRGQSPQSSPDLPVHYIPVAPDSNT
# Columns and labels:
# [1] = target: transmembrane CX3CL1, expressed in LOX melanoma cells (human) (UniProt P78423); experiment: cross-linking; isolated membranes of tm-chemokine overexpressing LOX cells (1.5 mg membrane protein, 0.2 M triethanolamine-hydrochloride pH 8.0) with 2 nM recombinant s-chemokine over night at 4°C; 1% paraformaldehyde 1 hr at room temperature; SDS-PAGE and Western blot
# transmembrane CX3CL1, expressed in LOX melanoma cells (human), sequence (P78423 25-397): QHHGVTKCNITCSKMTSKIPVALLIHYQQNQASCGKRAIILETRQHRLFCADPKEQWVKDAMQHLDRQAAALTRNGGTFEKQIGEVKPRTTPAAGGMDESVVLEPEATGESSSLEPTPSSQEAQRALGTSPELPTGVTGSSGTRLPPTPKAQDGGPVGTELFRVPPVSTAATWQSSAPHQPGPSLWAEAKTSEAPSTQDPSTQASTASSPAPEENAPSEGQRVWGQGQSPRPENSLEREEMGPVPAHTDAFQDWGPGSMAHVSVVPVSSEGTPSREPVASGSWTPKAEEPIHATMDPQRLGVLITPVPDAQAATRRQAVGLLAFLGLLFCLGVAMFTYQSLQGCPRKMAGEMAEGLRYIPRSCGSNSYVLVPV
# [2] = target: T1, transmembrane CXCL16 with a …; experiment: as above; conditions: one partner purified
stoichiometry N [1],stoichiometry N [2],Molecule
1 to 2,–,soluble CX3CL1 (recombinant human chemokine) (ligand)
–,1 to 2,"soluble CXCL16 (recombinant human chemokine) (ligand, Cy3 (monoreactive NHS ester) for light microscopy; biotin (One-step antibody biotinylation kit) for flow cytometry; adsorbed to 5 nm gold particles for electron microscopy; no label named for cross-linking and stimulation) NEGSVTGSCYCGKRISSDSPPSVQFMNRLRKHLRAYHRCLYYTRFQLLSWSVCGGNKDPWVQELMSCLDLKECGHAYSGIVAHQKHLLP"
